Columns and labels:
PKC-α (purified isoform) [1] = target: T1, PKC-α (purified isoform) (Homo sapiens (Human), UniProt P17252 2-672); experiment: competitive ELISA, coated purified PKC-α, vs anti-PKC α (SC-208); PRE 100 µM
T1 construct: also called purified PKC-alpha; commercially purified PKC-alpha
Description: (§1) Greiner 96 well ELISA plates were coated with the appropriate PKC isoform diluted in PBSN (PBS with Calcium/Magnesium+0.05% Sodium azide w/w). 50 μL/well at 250 ng/mL was used. Control wells contained PBSN only. Plates were incubated overnight at 4° C.
(§2) The plates were washed 3 times with 200 μL of dH₂O per well, then 100 μL of blocking solution was added per well and the plate incubated for 1 h at 37° C. The washing steps with dH₂O were repeated and 50 μL of the appropriate PRE solution (PRE stock solution [20 mM in DMSO] diluted in PBSN) was added and the plate incubated for 1 h at room temperature.
(§3) 50 μL of 1:1000 dilution of Alkaline Phosphatase (AP) conjugated antibody (anti-rabbit for all except zeta, which was anti-goat) was then added and the plate incubated for 1 h at room temperature. Washing with dH₂O was then repeated. Finally, 100 μL of pNPP solution in pNPP buffer (2 mM MgCl₂, 100 mM Sodium bicarbonate in water, pH 9.8) was added to all wells and incubated for 8 minutes for α, βI, βII ε, and ζ, or for 15-20 mins for δ (until sufficient coloration is observed). The reaction was stopped by addition of Stop solution (2N NaOH) and the absorbance at 405 nm was read on a Galaxy Plate reader.

[2] = target: T2, PKC-βII (purified isoform) (Homo sapiens (Human), UniProt P05771 2-621); experiment: competitive ELISA, coated purified PKC-βII, vs anti-PKC βII (SC-210); PRE 200 µM
T2 construct: also called PKC-beta II; PKC beta 2
T2 sequence (P05771 other isoform, or with tags, fused parts or gaps limits assumed): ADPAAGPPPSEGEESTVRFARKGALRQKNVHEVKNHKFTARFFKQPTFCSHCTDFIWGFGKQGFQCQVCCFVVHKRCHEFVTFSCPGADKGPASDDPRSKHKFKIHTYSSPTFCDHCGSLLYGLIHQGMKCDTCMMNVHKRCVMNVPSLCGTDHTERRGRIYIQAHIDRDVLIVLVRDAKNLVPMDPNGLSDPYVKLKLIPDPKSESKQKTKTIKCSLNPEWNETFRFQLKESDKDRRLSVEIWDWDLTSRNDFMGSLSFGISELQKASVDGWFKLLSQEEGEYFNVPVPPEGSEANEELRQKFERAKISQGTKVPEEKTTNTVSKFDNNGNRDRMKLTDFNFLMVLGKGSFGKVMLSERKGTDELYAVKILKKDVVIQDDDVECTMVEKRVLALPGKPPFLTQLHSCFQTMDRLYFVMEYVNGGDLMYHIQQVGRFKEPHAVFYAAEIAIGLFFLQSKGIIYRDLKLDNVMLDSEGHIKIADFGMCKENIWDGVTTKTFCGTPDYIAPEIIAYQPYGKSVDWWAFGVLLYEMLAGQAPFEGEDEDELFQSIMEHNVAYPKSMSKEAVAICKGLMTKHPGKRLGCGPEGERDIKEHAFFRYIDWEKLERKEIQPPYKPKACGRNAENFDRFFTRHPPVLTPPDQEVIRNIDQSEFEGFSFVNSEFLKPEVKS
Description: as §1, §2, §3

PKC-δ (purified isoform) = target: T3, PKC-δ (purified isoform); experiment: competitive ELISA, coated purified PKC-δ, vs anti-PKC δ (SC-213); PRE 100 µM
T3 construct: also called PKC-delta
T3 sequence (Q05655 whole entry, stated change not applied, canonical isoform): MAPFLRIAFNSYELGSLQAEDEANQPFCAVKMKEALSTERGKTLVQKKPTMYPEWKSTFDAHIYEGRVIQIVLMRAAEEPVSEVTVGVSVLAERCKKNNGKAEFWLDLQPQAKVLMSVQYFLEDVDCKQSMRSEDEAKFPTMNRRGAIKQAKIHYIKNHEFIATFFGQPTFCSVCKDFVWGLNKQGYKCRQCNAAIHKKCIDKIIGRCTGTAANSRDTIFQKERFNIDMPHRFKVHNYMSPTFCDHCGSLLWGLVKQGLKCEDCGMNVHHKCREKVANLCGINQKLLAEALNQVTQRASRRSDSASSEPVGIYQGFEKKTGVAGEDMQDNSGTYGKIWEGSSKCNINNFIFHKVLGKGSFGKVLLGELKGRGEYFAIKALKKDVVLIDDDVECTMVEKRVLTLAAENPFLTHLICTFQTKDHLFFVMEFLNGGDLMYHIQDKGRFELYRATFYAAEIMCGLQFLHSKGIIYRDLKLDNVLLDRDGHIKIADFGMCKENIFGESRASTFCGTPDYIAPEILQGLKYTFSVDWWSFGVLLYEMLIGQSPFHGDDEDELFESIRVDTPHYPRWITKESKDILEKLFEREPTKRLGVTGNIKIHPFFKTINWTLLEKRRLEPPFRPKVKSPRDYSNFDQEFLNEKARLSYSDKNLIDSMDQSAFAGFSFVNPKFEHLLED
Description: as §1, §2, §3

PKC-α (purified isoform) [3] = target: T1, PKC-α (purified isoform); experiment: competitive ELISA, coated purified PKC-α, vs anti-PKC α (SC-208); PRE 50 µM
Description: as §1, §2, §3

[4] = target: T2, PKC-βII (purified isoform); experiment: competitive ELISA, coated purified PKC-βII, vs anti-PKC βII (SC-210); PRE 50 µM
Description: as §1, §2, §3

PKC-α (purified isoform) [5] = target: T1, PKC-α (purified isoform); experiment: competitive ELISA, coated purified PKC-α, vs anti-PKC α (SC-208); PRE 200 µM
Description: as §1, §2, §3

[6] = target: T4, PKC-ε (endogenous, IMR-32 lysate) (human, UniProt Q02156 1-737); experiment: WB competition Protocol B, IMR-32 extract, vs anti-PKC-ε Ab; PKC-ε Band 1; 20 µg peptide
T4 construct: Band 1 and Band 2 (alternate splicing variants, not identified further) are kept under one molecule; the band is named in the assay field of each row; also called PKC-epsilon; PKC-ε Band 1
T4 sequence (looked up): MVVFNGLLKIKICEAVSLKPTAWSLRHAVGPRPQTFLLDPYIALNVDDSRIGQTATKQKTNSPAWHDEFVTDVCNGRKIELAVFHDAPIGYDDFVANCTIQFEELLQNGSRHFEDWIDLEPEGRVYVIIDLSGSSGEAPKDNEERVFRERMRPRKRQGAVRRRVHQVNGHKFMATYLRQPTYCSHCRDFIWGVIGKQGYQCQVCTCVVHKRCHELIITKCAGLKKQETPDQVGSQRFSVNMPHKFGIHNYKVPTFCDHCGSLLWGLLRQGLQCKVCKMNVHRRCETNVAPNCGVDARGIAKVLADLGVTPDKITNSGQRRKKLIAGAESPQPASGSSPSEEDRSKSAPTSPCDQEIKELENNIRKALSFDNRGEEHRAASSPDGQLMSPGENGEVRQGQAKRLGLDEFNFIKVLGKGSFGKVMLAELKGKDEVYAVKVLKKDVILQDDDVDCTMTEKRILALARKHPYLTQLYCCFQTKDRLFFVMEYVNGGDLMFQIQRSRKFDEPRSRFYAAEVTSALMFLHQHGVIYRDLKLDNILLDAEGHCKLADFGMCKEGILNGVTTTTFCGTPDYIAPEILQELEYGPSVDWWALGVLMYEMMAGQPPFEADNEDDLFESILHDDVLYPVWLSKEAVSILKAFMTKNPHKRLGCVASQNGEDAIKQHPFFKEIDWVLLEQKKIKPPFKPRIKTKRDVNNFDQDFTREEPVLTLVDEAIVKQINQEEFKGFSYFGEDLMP
Description: The ability of the peptides PRE 2 and PRE 3 (see Table 4) to interfere with the binding of a PKC-α-specific polyclonal antibody (Santa Cruz Biotechnology, Inc.) to PKC-α was determined using a modified version of the protocol outlined above in which the test peptide was added directly to the cell extract prior to electrophoresis at a concentration of either 5× or 15× the concentration of the protein applied to each well of the gel for the Western blots (20 μg).
Peptides PRE 2, PRE 3 and PRE 4 (see Table 4) were tested for their ability to interfere with the binding of isoform-specific polyclonal antibodies (Santa Cruz Biotechnology, Inc.) to […] using the general protocol described in Example 3. Two bands, representing alternate splicing variants of PKC-ε, were identified on the Western blot using this anti-PKC-ε antibody.

[7] = target: T5, PKC-βI (purified isoform) (Homo sapiens (Human), UniProt P05771 2-671); experiment: competitive ELISA, coated purified PKC-βI, vs anti-PKC βI (SC-209); PRE 100 µM
T5 construct: also called PKC-beta I; PKC beta 1
T5 sequence (P05771 2-671 limits assumed): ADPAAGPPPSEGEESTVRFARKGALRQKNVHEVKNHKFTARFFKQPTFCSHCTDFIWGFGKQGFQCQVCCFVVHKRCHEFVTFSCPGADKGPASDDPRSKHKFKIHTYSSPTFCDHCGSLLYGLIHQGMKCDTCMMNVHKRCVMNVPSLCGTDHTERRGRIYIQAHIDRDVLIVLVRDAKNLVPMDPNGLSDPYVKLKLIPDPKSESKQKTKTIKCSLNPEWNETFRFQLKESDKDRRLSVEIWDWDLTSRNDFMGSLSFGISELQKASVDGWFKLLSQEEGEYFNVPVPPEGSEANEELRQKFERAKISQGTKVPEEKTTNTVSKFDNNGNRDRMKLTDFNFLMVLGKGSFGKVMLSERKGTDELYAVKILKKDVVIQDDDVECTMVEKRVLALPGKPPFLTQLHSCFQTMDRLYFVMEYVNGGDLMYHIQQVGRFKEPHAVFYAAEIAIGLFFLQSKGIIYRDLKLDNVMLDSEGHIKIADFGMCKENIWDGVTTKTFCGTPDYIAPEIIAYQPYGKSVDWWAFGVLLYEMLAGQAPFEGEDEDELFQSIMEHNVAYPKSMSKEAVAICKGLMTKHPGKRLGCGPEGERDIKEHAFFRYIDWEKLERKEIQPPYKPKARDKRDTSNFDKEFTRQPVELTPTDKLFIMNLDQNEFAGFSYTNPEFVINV
Description: as §1, §2, §3

Ac-KDAQNLIGISI-NH2 (also called peptide PRE 4) [PRE 4]
relative binding capacity (100-%n, DMSO subtracted) (PKC-α (purified isoform) [1]): 21.9%
relative binding capacity (100-%n, DMSO subtracted) [2]: 1.18%
relative binding capacity (100-%n, DMSO subtracted) (PKC-δ (purified isoform)): 30.7%
relative binding capacity (100-%n, DMSO subtracted) (PKC-α (purified isoform) [3]): 6.46%
relative binding capacity (100-%n, DMSO subtracted) [4]: 2.69%
relative binding capacity (100-%n, DMSO subtracted) (PKC-α (purified isoform) [5]): 22.8%
Band Intensity [6]: 184
Inhibition (%) [6]: 42.9%
Relative Intensity (%) [6]: 57.1%
relative binding capacity (100-%n, DMSO subtracted) [7]: 15.7%
